The text below walks through data of US20180208648A1 (SCHOLAR ROCK, published 2018).

The target in one assay is T1, human proGDF11 (human, UniProt O95390 25-407, biotinylated (NHS-PEG4-Biotin), site not stated).
T1 sequence: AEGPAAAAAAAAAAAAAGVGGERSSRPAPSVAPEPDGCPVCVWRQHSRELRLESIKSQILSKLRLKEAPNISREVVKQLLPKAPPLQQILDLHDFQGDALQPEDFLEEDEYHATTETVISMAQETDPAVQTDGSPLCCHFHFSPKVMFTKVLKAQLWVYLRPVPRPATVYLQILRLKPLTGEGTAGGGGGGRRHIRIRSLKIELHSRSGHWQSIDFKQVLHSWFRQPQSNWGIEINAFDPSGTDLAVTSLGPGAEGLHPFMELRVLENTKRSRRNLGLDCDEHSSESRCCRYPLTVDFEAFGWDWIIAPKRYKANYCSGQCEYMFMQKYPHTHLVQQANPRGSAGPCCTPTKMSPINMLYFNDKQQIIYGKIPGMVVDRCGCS
Nature of the assay: cell-based or functional assay.

The target in another assay is T2, murine proGDF11 (mouse, UniProt Q9Z1W4 25-405, biotinylated, site not stated).
T2 sequence: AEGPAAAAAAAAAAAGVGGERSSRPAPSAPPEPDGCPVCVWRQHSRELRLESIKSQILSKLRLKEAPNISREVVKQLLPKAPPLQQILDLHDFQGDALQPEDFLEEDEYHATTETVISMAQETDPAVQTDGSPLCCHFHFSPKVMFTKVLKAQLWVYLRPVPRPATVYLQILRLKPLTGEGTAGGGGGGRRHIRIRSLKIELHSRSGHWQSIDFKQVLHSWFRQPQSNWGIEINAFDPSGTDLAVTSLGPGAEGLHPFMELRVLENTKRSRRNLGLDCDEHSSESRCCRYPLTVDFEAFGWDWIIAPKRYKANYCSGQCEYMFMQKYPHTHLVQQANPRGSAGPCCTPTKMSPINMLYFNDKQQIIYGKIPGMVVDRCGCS
Nature of the assay: cell-based or functional assay.

The next assay deals with T3, human proGDF11 ARM8 (human, biotinylated, site not stated).
T3 construct: GDF11 having the GDF8 arm domain
T3 chain: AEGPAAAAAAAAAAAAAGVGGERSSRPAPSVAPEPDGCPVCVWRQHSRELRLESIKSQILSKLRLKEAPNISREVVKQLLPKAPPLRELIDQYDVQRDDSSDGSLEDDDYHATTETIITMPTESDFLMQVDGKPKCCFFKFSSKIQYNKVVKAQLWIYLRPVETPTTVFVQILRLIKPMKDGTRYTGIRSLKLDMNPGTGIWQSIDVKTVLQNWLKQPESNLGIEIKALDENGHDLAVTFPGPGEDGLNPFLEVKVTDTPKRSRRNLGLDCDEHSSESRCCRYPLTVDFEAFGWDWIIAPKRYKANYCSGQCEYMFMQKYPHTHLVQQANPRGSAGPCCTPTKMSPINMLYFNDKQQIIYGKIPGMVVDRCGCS
Nature of the assay: ELISA, biotinylated antigen on neutravidin plate. The text has this:
(§1) Candidate clones were converted to human IgG1 format. Full-length IgG antibodies were further characterized by ELISA for binding to the human and murine pro- and latent-forms of myostatin and GDF11. Antibodies were also screened for binding to the Myostatin prodomain (SEQ ID NO: 85), proTGFDβ1 (human and murine), the mature growth factor of Myostatin (SEQ ID NO: 89), the GDF11 mature growth factor (SEQ ID NO: 90), and proActivin A (SEQ ID NO: 84). Chimeric constructs which swapped portions of the prodomains of Myostatin and GDF11 were designed and produced. For example proGDF11 arm8 (SEQ ID NO: 112) refers to GDF11 having the GDF8 arm domain, and prodomain GDF11 arm8 (SEQ ID NO: 114) refers to the GDF11 prodomain having the GDF8 arm domain. These chimeric proteins were assayed for interaction with screening antibodies by ELISA and allowed for the assessment of binding of antibodies to the ARM or straight jacket portions of the GDF11 prodomain complex. Antibodies were selected based on their cross-reactivity with pro- and latent human and murine GDF11, with no interactions with GDF8, Activin, or TGFβ proteins. Activin A is a homodimer of inhibin-beta A subunits. For example, Inhibin-beta A can heterodimerize with other proteins to produce different Activin proteins.
(§2) Enzyme-linked immunosorbent assay (ELISA) analysis is carried out to assess antibody binding. 96-well ELISA assay plates are coated with neutravidin, a deglycosylated version of streptavidin with a more neutral pH. Target proteins are expressed with or without histidine (His) tags and subjected to biotinylation. Biotinylated target proteins are incubated with neutravidin-coated ELISA assay plates for two hours at room temperature and unbound proteins are removed by washing three times with wash buffer (either 25 mM Tris, 150 mM NaCl, 0.05% TWEEN®-20, or 20 mM Hepes pH 7.5, 500 mM NaCl, 0.05% TWEEN®-20). Primary antibodies being tested are added to each well and allowed to incubate at room temperature for 1 hour or more. Unbound antibody is then removed by washing three times with wash buffer. Secondary antibodies capable of binding to primary antibodies being tested and conjugated with detectable labels are then incubated in each well for 30 minutes at room temperature. Unbound secondary antibodies are removed by washing three times with wash buffer.

The target of assay [1] is T4, human prodomain GDF11 ARM8 (human, biotinylated, site not stated).
T4 construct: GDF11 prodomain having the GDF8 arm domain; also called human GDF11 ARM8 prodomain
T4 chain: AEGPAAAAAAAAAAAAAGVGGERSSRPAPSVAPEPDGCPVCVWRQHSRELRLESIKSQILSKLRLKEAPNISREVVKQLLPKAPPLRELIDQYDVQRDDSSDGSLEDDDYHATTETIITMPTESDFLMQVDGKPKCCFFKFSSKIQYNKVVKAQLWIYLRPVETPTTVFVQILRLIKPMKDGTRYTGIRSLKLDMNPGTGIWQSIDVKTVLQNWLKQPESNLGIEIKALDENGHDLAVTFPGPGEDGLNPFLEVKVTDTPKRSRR
Nature of the assay: ELISA, biotinylated antigen on neutravidin plate.
Excerpt: as §1, §2
On the technique in general: In an ELISA, binding on a coated surface is turned into a signal by an enzyme label.

For another assay, the target named is T5, human mature GDF11 (human, UniProt O95390 299-407, biotinylated, site not stated).
T5 construct: Growth factor domain; also called GDF11 mature growth factor
T5 sequence: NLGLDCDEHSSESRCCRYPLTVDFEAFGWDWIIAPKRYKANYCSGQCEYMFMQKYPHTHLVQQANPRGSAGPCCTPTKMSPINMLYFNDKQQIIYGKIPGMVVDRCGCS
Briefly: ELISA, biotinylated antigen on neutravidin plate.
Excerpt: as §1, §2

B1: GDF11 Inh-2 (antibody, V domains shown)
VH: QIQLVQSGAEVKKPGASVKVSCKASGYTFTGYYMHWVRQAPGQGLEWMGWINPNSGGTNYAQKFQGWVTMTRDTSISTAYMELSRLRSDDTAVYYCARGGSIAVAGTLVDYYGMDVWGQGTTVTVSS
VL: DIQMTQSPSSLSASVGDRVTITCQASQDISNYLNWYQQKPGKAPKLLIYDASNLETGVPSRFSGSGSGTDFTLTISSLQPEDVATYYCQKYSTAPLTFGGGTKVEIKR
notes: also called Clone GDF11 Inh-2
B1: the “Human proGDF11 % Inhibition (proGDF11 activation assay, CAGA luciferase reporter in 293T cells)” value with human proGDF11 worked out at 100%. Besides, the “Murine proGDF11 % inhibition (proGDF11 activation assay, CAGA luciferase reporter in 293T cells)” value in the assay with murine proGDF11 was 95%. The binding result (in the assay with human proGDF11 ARM8; in assay [1]; in the assay with human mature GDF11) was “no binding” throughout.

B2: GDF11 Inh-4 (antibody, V domains shown)
VH: QVQLVQSGAEVKKPGASVKVSCKASGYTFTSYGISWVRQAPGQGLEWMGWISAYNGNTNYAQKLQGRVTMTTDTSTSTAYMELRSLRSDDTAVYYCARTPPLWFGEYGAFDIWGQGAMVTVSS
VL: DIQMTQSPSSLSASVGDRVTITCQASQDISNYLNWYQQKPGKAPKLLIYDASNLETGVPSRFSGSGSGTDFTLTISSLQPDDFATYYCQQSYTTPITFGQGTRLEIKR
notes: also called Clone GDF11 Inh-4
On to B2, for which, in the assay with human proGDF11, the “Human proGDF11 % Inhibition (proGDF11 activation assay, CAGA luciferase reporter in 293T cells)” value worked out at 94%. In addition, the “Murine proGDF11 % inhibition (proGDF11 activation assay, CAGA luciferase reporter in 293T cells)” value in the assay with murine proGDF11 turned out to be 87%. Moreover, the binding result (with human proGDF11 ARM8; in assay [1]; with human mature GDF11) was “no binding” throughout.
